From patent US20040043420A1, “Method of identifying conformation-sensitive binding peptides and uses thereof” (priority 2003, published 2004)

Assays:
[1] = biological target: ER β (Homo sapiens, UniProt Q92731); test: Phage ELISA fingerprint: binding of peptide phage to immobilized ER β in the presence of modulators (Table 14B)
[2] = biological target: T1, ER α, P03372; test: peptide probe binding to ERα, Buffer
T1 chain: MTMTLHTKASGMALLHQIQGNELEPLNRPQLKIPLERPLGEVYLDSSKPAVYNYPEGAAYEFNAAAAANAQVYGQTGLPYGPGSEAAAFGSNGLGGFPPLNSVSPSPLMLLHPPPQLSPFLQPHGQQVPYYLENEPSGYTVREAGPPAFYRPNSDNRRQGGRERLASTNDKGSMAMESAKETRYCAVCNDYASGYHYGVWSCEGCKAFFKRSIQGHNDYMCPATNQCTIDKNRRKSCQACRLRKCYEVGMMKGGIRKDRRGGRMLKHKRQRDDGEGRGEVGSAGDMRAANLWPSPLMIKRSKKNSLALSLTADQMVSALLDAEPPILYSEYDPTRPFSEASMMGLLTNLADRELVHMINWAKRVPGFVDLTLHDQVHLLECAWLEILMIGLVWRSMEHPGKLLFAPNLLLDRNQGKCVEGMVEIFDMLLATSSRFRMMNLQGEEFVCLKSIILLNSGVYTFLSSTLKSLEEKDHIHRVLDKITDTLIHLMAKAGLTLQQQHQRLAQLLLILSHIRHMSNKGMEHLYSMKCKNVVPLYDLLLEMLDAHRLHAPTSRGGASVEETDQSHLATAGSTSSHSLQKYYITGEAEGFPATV

[3] = biological target: T1, ER α, P03372; test: peptide probe binding to ERα, GW7604
[4] = biological target: T1, ER α, P03372; test: peptide probe binding to ERα, Estriol
[5] = biological target: T1, ER α, P03372; test: peptide probe binding to ERα, Clomiphene
[6] = biological target: T1, ER α, P03372; test: peptide probe binding to ERα, Nafoxidine
[7] = biological target: T1, ER α, P03372; test: peptide probe binding to ERα, Raloxifene
[8] = biological target: T1, ER α, P03372; test: peptide probe binding to ERα, ICI 182,780
[9] = biological target: T1, ER α, P03372; test: peptide probe binding to ERα, 17α-Estradiol
[10] = biological target: T1, ER α, P03372; test: peptide probe binding to ERα, 17β-Estradiol
[11] = biological target: T1, ER α, P03372; test: peptide probe binding to ERα, 4-OH Tamoxifen
[12] = biological target: T1, ER α, P03372; test: peptide probe binding to ERα, Diethylstilbesterol
[13] = biological target: T2, Gal4 transcriptional activation domain (AD) fused in frame with AR (yeast, UniProt P10275 1-920, limits assumed); test: cell-based or functional assay
T2 sequence (looked up): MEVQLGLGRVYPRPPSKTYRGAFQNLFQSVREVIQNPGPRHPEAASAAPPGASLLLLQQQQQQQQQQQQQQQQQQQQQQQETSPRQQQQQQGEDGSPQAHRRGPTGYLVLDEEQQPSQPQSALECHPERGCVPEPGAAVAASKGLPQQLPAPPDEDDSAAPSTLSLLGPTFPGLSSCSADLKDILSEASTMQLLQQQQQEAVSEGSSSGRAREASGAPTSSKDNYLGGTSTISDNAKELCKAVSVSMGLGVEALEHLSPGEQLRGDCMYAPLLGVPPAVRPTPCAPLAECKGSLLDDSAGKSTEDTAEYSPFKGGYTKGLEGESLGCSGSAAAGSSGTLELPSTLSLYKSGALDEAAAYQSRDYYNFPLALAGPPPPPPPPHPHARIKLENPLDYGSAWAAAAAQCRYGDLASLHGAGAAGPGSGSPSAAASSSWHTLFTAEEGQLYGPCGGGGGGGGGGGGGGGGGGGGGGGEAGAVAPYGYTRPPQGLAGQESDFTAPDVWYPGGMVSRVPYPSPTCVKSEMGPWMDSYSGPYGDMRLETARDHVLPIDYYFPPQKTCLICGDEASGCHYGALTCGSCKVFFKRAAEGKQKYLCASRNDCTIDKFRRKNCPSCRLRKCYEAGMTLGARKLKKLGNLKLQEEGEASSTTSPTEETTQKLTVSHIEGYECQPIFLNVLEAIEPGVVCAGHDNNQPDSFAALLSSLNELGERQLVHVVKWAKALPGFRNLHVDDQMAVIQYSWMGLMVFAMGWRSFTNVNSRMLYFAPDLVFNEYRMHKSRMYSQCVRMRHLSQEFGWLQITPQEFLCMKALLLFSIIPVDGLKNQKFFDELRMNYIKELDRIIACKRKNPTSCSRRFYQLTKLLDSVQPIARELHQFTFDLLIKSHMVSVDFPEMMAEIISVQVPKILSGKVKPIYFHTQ

[14] = biological target: T2, Gal4 transcriptional activation domain …; test: cell-based or functional assay; remark: listed apart in the source
[15] = biological target: T3, ER α (UniProt P03372 1-595, limits assumed); test: phage isolated on ERα-ERE; Tamoxifen
T3 construct: also called estrogen receptor α; ERα-ERE
T3 sequence (looked up): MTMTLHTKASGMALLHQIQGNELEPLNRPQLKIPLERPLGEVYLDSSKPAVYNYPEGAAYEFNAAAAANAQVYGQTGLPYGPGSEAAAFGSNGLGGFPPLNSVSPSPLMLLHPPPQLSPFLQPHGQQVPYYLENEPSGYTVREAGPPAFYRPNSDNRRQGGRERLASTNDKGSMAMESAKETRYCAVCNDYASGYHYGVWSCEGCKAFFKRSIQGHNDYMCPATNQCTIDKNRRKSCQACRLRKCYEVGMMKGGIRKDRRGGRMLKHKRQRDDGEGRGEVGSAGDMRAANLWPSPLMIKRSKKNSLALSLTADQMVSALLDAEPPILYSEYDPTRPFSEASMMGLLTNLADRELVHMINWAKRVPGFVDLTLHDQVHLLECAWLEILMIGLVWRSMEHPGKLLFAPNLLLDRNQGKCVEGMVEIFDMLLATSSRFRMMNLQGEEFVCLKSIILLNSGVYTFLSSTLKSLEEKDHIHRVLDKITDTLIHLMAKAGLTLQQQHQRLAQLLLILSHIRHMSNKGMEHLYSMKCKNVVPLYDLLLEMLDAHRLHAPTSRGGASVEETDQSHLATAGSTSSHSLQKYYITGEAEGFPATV

[16] = biological target: T3, ER α; test: phage isolated on ERα-ERE; Raloxifen
[17] = biological target: T4, ER β (UniProt Q92731 1-530, limits assumed); test: phage ELISA, ICI 182,780 1 µM
T4 construct: In vitro; also called estrogen receptor β; ERβ-ERE

[18] = biological target: T4, ER β; test: peptide probe binding to ERβ, Clomiphene
[19] = biological target: T4, ER β; test: peptide probe binding to ERβ, Raloxifene
[20] = biological target: T4, ER β; test: peptide probe binding to ERβ, Estriol
[21] = biological target: T4, ER β; test: peptide probe binding to ERβ, GW 7604
[22] = biological target: T3, ER α; test: peptide probe binding to ERα, ICI 182,780
[23] = biological target: T4, ER β; test: peptide probe binding to ERβ, 17β-Estradiol
[24] = biological target: T3, ER α; test: peptide probe binding to ERα, 4-OH Tamoxifen
[25] = biological target: T3, ER α; test: peptide probe binding to ERα, Diethylstilbesterol

T4 sequence (Q92731 whole entry): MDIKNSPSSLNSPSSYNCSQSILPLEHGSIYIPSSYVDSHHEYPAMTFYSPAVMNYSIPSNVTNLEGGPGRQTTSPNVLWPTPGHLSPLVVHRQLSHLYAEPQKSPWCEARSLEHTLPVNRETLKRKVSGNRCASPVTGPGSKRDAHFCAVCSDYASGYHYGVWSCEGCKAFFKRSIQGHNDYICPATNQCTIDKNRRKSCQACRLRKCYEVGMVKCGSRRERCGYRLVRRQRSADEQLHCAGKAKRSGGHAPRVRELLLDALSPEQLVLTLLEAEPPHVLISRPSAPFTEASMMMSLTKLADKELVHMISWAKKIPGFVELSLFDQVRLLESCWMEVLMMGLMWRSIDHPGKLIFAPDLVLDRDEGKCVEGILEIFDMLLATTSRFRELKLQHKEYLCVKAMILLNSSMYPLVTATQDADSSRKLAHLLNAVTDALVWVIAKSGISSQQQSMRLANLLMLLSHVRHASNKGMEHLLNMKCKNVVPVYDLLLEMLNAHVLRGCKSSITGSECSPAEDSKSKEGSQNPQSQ
ER β (Homo sapiens, UniProt Q92731), sequence (Q92731 whole entry, species assumed): as the sequence (Q92731 whole entry) above

SSNHQSSRLIELLSR [#4 ER./E2]
Class Specific Fingerprint on ERβ: phage binding, 4-OH Tamoxifen present ([1]; 4-OH tamoxifen 1 μM): 0 | Class Specific Fingerprint on ERβ: phage binding, ICI 182,780 present ([1]; ICI 182,780 1 μM): 0 | Class Specific Fingerprint on ERβ: phage binding, Clomiphene present ([1]; clomiphene 10 μM): 0 | Class Specific Fingerprint on ERβ: phage binding, Raloxifene present ([1]; raloxifene 1 μM): 0

SRLPPSVFSMCGSEVCLSR [9Tβ]
Class Specific Fingerprint on ERβ: phage binding, Nafoxidine present ([1]; nafoxidine 10 μM): 5

B1: phage 5 (Table 2) (peptide)
peptide: SSLTSRDFGSWYASR
modifications: not checked
Equiv. [2]: 0% | Equiv. [3]: 35% | Equiv. [4]: 62% | Equiv. [5]: 56% | Equiv. [6]: 32% | Equiv. [7]: 44% | Equiv. [8]: 56% | Equiv. [9]: 80% | Equiv. [10]: 100% | Equiv. [11]: 38% | Equiv. [12]: 69%

B2: M4D1 (peptide)
chain: MKLLSSIEQACDICRLKKLKCSKEKPKCAKCLKNNWECRYSPKTKRSPLTRAHLTEVESRLERLEQLFLLIFPREDLDMILKMDSLQDIKALLTGLFVQDNVNKDAVTDRLASVETDMPLTLRQHRISATSSSEESSNKGQRQLTVSEFRFPFHEMVREWESMGLERVRYAEP
Fold induction (yeast two-hybrid) [13]: > 2 fold | β-galactosidase activity (yeast two-hybrid), CPA [14]: -0.0396 | β-galactosidase activity (yeast two-hybrid), DHT [14]: 0.395 | β-galactosidase activity (yeast two-hybrid), MPA [14]: 1.7 | β-galactosidase activity (yeast two-hybrid), No Lig [14]: 0 | β-galactosidase activity (yeast two-hybrid), RU [14]: 0.1 | β-galactosidase activity (yeast two-hybrid), Test [14]: 0.134

B3: M7B1 (peptide)
chain: MKLLSSIEQACDICRLKKLKCSKEKPKCAKCLKNNWECRYSPKTKRSPLTRAHLTEVESRLERLEQLFLLIFPREDLDMILKMDSLQDIKALLTGLFVQDNVNKDAVTDRLASVETDMPLTLRQHRISATSSSEESSNKGQRQLTVSEFVGWFTGMAACSYAPDLDLQPS
Fold induction (yeast two-hybrid) [13]: > 2 fold | β-galactosidase activity (yeast two-hybrid), CPA [14]: 1.69 | β-galactosidase activity (yeast two-hybrid), DHT [14]: 3.93 | β-galactosidase activity (yeast two-hybrid), MPA [14]: 6.9 | β-galactosidase activity (yeast two-hybrid), No Lig [14]: 0 | β-galactosidase activity (yeast two-hybrid), RU [14]: 0.1 | β-galactosidase activity (yeast two-hybrid), Test [14]: 4.5

B4: T3-1 (peptide)
peptide: SRTLQLDWGTLYSR
binding result [15]: binds

B5: T2-10 (peptide)
peptide: SRFEIWKPEPGCVSSLENWEPGKRVCSR
binding result [15]: binds

B6: T3-11 (peptide)
peptide: SRVFGVSGGEVVLINGSSR
binding result [15]: binds

B7: 1R (peptide)
peptide: SRLCFGDWCMLGGVDVLSR
binding result [16]: binds

B8: 2R (peptide)
peptide: SSLNMVVDTPWCGKWVCSR
binding result [16]: binds

B9: 4T-β (peptide)
peptide: SREWEDGFGGRWLSR
notes: also called β I; B1
phage ELISA grade [17]: 0 | Equiv. [18]: -62% | Equiv. [19]: -53%

B10: 35E-β (peptide)
peptide: SSLDLSQFPMTASFLRESR
notes: also called β II; B2
phage ELISA grade [17]: 0

B11: α/β III (peptide)
peptide: SSWDMHQFFWEGVSR
notes: also called AB3
Equiv. [20]: -57% | Equiv. [21]: -86% | Equiv. [18]: 34% | Equiv. [19]: 77% | Equiv. [22]: -100% | Equiv. [23]: -71% | Equiv. [24]: 100% | Equiv. [25]: -53%

B12: 12B-β (peptide)
peptide: SSEACVGRWMLCEQLGVSR
notes: also called β III; B3
Equiv. [20]: 77% | Equiv. [18]: -61% | Equiv. [19]: -71%
